Source: paper PMC7191749, “Low phosphatase activity of LiaS and strong LiaR-DNA affinity explain the unusual LiaS to LiaR in vivo stoichiometry” (BMC Microbiology, 2020)

What was measured:
[1] = system: LiaRC (effector domain) (Bacillus subtilis 168); assay: EMSA; details: 5 mM Mg2+; EMSA: 10 mM Tris pH 7.5, 50 mM KCl, 1 mM DTT, 5 mM MgCl2, 10 ng herring sperm DNA, 2.5% glycerol, 25 C, 30 min, 9% native PAGE; footprinting as in ref 35
[2] = system: LiaR (Bacillus subtilis 168); assay: EMSA; details: 5 mM Mg2+; unphosphorylated; EMSA: 10 mM Tris pH 7.5, 50 mM KCl, 1 mM DTT, 5 mM MgCl2, 10 ng herring sperm DNA, 2.5% glycerol, 25 C, 30 min, 9% native PAGE; footprinting as in ref 35
[3] = target: T1, LiaS (GST-LiaS, liaS^126) (Bacillus subtilis, UniProt O32198); assay: autophosphorylation, […] incorporation by SDS-PAGE phosphorimaging, kobs against ATP; type: biochemical; details: labelled compound; pH 7.4, 50 mM KCl, 5 mM MgCl2, 10 mM CaCl2, 25 °C; 5 μM LiaS; 10-250 μM ATP; apparent dissociation constant from kinetics; read-out: KS
T1 construct: cytoplasmic domain, residues 126-360 (TM and HAMP removed), fused to C-terminus of GST; pGEX-4T-1, E. coli BL21(DE3); calculated mass 52,431 (printed as kD)

[4] = target: T2, LiaRC (effector domain) (Bacillus subtilis 168) (UniProt O32197); assay: EMSA; details: EMSA: 10 mM Tris pH 7.5, 50 mM KCl, 1 mM DTT, 5 mM MgCl2, 10 ng herring sperm DNA, 2.5% glycerol, 25 C, 30 min, 9% native PAGE; footprinting as in ref 35
T2 sequence: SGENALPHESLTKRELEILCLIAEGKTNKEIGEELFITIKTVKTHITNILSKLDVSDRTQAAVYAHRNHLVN

[5] = target: T3, LiaR (Bacillus subtilis 168) (UniProt O32197); assay: EMSA; details: EMSA: 10 mM Tris pH 7.5, 50 mM KCl, 1 mM DTT, 5 mM MgCl2, 10 ng herring sperm DNA, 2.5% glycerol, 25 C, 30 min, 9% native PAGE; footprinting as in ref 35
T3 sequence: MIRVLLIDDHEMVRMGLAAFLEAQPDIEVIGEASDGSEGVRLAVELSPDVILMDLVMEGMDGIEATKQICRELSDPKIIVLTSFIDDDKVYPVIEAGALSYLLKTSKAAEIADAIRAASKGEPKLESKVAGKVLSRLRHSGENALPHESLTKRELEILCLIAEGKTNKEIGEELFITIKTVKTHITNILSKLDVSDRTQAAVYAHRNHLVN

[6] = target: T3, LiaR (Bacillus subtilis 168); assay: DNase I footprinting; details: EMSA: 10 mM Tris pH 7.5, 50 mM KCl, 1 mM DTT, 5 mM MgCl2, 10 ng herring sperm DNA, 2.5% glycerol, 25 C, 30 min, 9% native PAGE; footprinting as in ref 35
[7] = target: T4, VraR (Staphylococcus aureus) (UniProt Q7A2Q1); assay: DNase I footprinting; details: EMSA: 10 mM Tris pH 7.5, 50 mM KCl, 1 mM DTT, 5 mM MgCl2, 10 ng herring sperm DNA, 2.5% glycerol, 25 C, 30 min, 9% native PAGE; footprinting as in ref 35
T4 sequence: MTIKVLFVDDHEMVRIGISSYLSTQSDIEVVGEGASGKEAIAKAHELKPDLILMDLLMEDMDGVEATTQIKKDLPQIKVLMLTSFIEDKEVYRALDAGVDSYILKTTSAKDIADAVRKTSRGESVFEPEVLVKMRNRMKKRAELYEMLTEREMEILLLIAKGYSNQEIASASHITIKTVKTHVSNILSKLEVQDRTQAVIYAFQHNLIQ

[8] = target: T5, LiaR^N (RD of LiaR) (Bacillus subtilis, UniProt O32197); assay: phosphorylation by acetyl phosphate; type: biochemical; details: covalent phosphorylation of the stand-alone receiver domain
T5 construct: receiver domain, tagless, Gly-131 codon changed to stop (residues 1-130); pET26b, E. coli BL21(DE3); calculated mass 14,029 (printed as kD)

[9] = target: the molecule itself; assay: native-PAGE

T1 sequence (O32198 126-360): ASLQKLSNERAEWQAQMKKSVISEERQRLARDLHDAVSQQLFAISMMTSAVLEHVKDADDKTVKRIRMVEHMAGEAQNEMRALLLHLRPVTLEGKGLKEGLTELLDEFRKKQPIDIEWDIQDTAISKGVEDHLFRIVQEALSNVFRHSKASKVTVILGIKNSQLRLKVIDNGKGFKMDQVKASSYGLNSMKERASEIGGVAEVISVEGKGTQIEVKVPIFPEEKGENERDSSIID

Q: PliaI (-162 to +31) was tested. Which Kd [1] did it give?
A: The Kd was 20 µM.

Q: What about the Kd [2] of the same molecule?
A: Its Kd is 0.2 µM.

Q: Which Kd [3] does the source give for Nc1ncnc2c1ncn2[C@@H]1O[C@H](COP(=O)(O)OP(=O)(O)OP(=O)(O)O)[C@@H](O)[C@H]1O [ATP] here?
A: The Kd was 7 ± 1 µM.

Q: Which results are given for “TTCATGCAGATCCTCCTTTCGTTTTCCTTGTCTTCATCTTATACAAGTTGGAAGATATGCAAAACGAATCAGAGATTGATTTTTATATAAGACCGGAGTCGTATCTCGCACCGGACCCATTGGCACAAAAAAACGCCATGCACGAGGCATGGCGTTTTAAAACCCTTTACAGATGAACACTTGCTTCCCTTTC (double strand) [PliaI (-162 to +31)]”?
A: Kd [4]: 20 µM; Kd [5]: 0.2 µM; binding [6]: binds; binding [7]: binds

Q: How did the “phosphorylation by acetyl phosphate” value [8] turn out when CC(=O)OP(=O)(O)O [acetyl phosphate] was run?
A: The value was “RD of LiaR also underwent phosphorylation by acetyl phosphate”.

B1: LiaR 1-211 (protein)
chain: T3 sequence
Q: With B1 as the molecule, how does the Kd [9] read?
A: The Kd was > 20 µM.
